Experiment [1] concerns the target human GPRC5D protein (human) (UniProt Q9NZD1). Put plainly: FACS, hybridoma subclone supernatant on NCI-H929 cells.
Experiment [2] addresses CHO-K1-hGPRC5D^hi cells, CHO-K1-cynoGPRC5D cells, and/or CHO-K1-murineGPRC5D cells. The experiment in a line: cell ELISA (OD450), subclone supernatant on fixed transfected CHO-K1 cells against CHO-K1. (In general: In an ELISA, binding on a coated surface is turned into a signal by an enzyme label.)

Changes are numbered by the printed parent chain.

Sequence of human GPRC5D protein (human) (Q9NZD1 whole entry): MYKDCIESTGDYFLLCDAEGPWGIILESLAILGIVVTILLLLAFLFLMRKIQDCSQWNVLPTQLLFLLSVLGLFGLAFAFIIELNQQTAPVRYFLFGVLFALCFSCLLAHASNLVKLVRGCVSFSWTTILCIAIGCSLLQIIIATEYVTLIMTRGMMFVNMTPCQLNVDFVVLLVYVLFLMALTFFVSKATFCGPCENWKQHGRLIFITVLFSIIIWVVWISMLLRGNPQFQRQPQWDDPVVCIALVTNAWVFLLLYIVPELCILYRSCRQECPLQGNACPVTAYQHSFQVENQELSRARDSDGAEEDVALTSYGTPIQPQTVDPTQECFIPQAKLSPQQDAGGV

B1: mu-89 (antibody, V domains shown)
VH: EVQLVESGGDLVKPGGSLKLSCAASGFTFSSYGMSWVRQTPDKRLEWVATISSGGSYTYYPDSVKGRFTFSRDNAKNTLYLQMSSLKSEDTAMYYCVRQALRYHMDSWGQGTSVTVSS
VL: DIVMTQSQKFMSTSVGDRVSVTCKASQNVGTNVAWYQQKPGQSPKALIYSASYRYSGVPDRFTGSGSGTDFTLTISNVQSEDLADFFCQQYYSYPWTFGGGTKLEIK
For the molecule B1, the MFI in experiment [1] amounted to 11900 MFI. Besides, the fold difference in absorbance as compared to the control cell CHO-K1 in experiment [2] was more than 2 fold.

B2: mu-105 (antibody, V domains shown)
VH: EVQLQQSGPELVKPGASVKMSCKASGYTFTDYYMNWVKQSHGKSLEWIGYIYPNNGGTGYNQRFKGKATLTADKSSSTAYMELRSLTSEDSAVYYCARWGGTRLGYYAMDYWGQGTSVTVSS
VL: B1 VL with A34V, A46L, S50W, Y53T, Y55H, S56T, F86Y, Y92S, S93R, W96Y
B2 had an MFI in experiment [1] of 13200 MFI. Besides, the fold difference in absorbance as compared to the control cell CHO-K1 in experiment [2] is more than 2 fold.

B3: mu-131 (antibody, V domains shown)
VH: EVQLQQSGPELVKPGASVKMSCKASGYTFTNYVMHWVKQKPGQGLEWIGYFNPYNDGTNYNEKFKGKATLTSDKSSNTAYMELSSLTSEDSAVYYCARGGVRRYFDVWGAGTTVTVSS
VL: DIQMTQSPSSLSASLGERVSLTCRASQDIGSNLNWLQLGPDGTIKRLIYATFSLDSGVPKRFSGSRSGSDYSLTISSLESEDFVDYYCQQYANFPPTFGGGTKLEIK
In experiment [1], B3 came in with an MFI of 12800 MFI. In experiment [2], this molecule displayed a fold difference in absorbance as compared to the control cell CHO-K1 of more than 2 fold.

B4: mu-128 (antibody, V domains shown)
VH: DVQLVESGGGLVQPGGSRKVSCAASGFTFSSFGMHWVRQAPEKGLEWVAYISRGSSTIYYADTVKGRFTISRDNPKNTLFLQMTSLRSEDTAMYYCARSGYGSSSYYFDYWGQGTTLTVSS
VL: ENVLTQSPAIMSASPREKVTMTCRASSSIRSSYLHWYQQKSGASPKLWIYSTSNLASGVPARFSGSGSGTSYSLTISSVEAEDAATYYCQQFSGYPLTFGGGTKLEIK
With B4, the MFI in experiment [1] is 15700 MFI. Besides, the fold difference in absorbance as compared to the control cell CHO-K1 in experiment [2] was more than 2 fold.

B5: mu-169 (antibody, V domains shown)
VH: EVKLVESGGGLVKPGASLKLSCAASGFTFSNYGMSWVRQTSDKRLEWVASISSGGGRIYYPDNVKGRFTISRENAKNTLYLQMSSLKSEDTALYYCTRHAMDNWGQGTSVIVSS
VL: QIVLTQSPAIMSASPGEKVTMTCSASSSVSNMYWYQQKSGTSPKRWIYDTSKLASGVPARFSGSGSGTSYSLTISSMEAEDASTYYCQQWSSNPLTFGAGTTLELK
In experiment [1], B5 displayed an MFI of 59300 MFI. Also, the fold difference in absorbance as compared to the control cell CHO-K1 in experiment [2] was more than 2 fold.

These data come from patent EP4703384A1.
